Experimental data reported in a protein production outcome set (Wang et al. 2014).

Test: label from the status in PepcDB records

Row | Sequence | protein production
1 | KGMIRPRGLNQQRYVKEVLSNDINFGIGPAGTGKTYLAVACAVDALEREQIRRILLVRPAVEAGEKLGFLPGDLAQKIDPYLRPLYDALYEMLGFEYVAKLIEKQVIEVAPLAYMRGRTLNNSFIILDESQNTTVEQMKMFLTRIGFGSTAVITGDITQVDLPKGTRSGLTHVIDVLKDVPGISFTHFKPKDVVRHPLVQRIVEAYERFDDQLSDGPSGNNG | not failed
2 | KIGKHTIKFPIFQGGMGVGISWDELAGNVAKEGALGVISAVGTGYYKNMRFVERIVAKKPFEALNFYSKKALNEIFANARKICGNNPLGANILYAINDYGRVLRDSCEAGANIIITGAGLPTNMPEFAKDFSDVALIPIISSAKALKILCKRWSDRYKRIPDAFIVEGPLSGGHQGFKYEDCFKEEFRLENLVPKVVEASKEWGNIPIIAAGGIWDRKDIDTMLSLGASGVQMATRFLGTKECDAKVYADLLPTLKKEDILLIKSPVGYPARAINTGVIKRIEEGNAPKIACVSNCVAPCNRGEEAKKVGYCIADGLGRSYLGNREEGLYFTGANGYRVDKIISVHELIK | failed
3 | KISNIFEDVEFCVMSGTDSQPKPDLENRIAEFGGYIVQNPGPDTYCVIAGSENIRVKNIILSNKHDVVKPAWLLECFKTKSFVPWQPRFMIHMCPSTKEHFAREYD | not failed
4 | KKKVLIYGAGSAGLQLANMLRQGKEFHPIAFIDDDRKKHKTTMQGITIYRPKYLERLIKKHCISTVLLAVPSASQVQKKVIIESLAKLHVEVLTIPNLDDLVNGKLSIGQLKEVSIDDLLGRVAVTPQAELMEANIKD | not failed
5 | KKTEWSREEEEKLLHLAKLMPTQWRTIAPIIGRTAAQCLEHYEFLLDKAAQRD | not failed
6 | KKVCVDTCVVIDGRITELIERGKLKDATIIIPEAVVSELEYQANMGREIGYKGIEELRKLIEKASEHNIKVEYYGERPTREEIFLAKSGEIDAMIRKVAKETNSILLTSDWIQYNLAKAQGIEAYFLEAAEEEVELVLD | not failed
7 | KKYVDNLKETISRVEVSRDNFLTILNSLSEPIFILDREGKITFLNEIARELVQGRINPEGRPYYEIFEDYYINEMVEETIKSEEPQEGTLVTYVGNEKKYFHVKVIPVELKSGDKIFVILFHDVTKERKLDEMRREFIATVSHEL | failed
8 | KLAYRHLIQPESAVRKLMILVNGRAENMLKWSELAYDFYHQGYDVLLFDHRGQGYSQRIIPQKGHLDEFRFYVDDMAKIIEKVTALFSYSTQHLLAHSMGALIATYYLANYDHHINKAVLSSPFYGILLKHPIRDELIITLMNILGQGERYVFGKGAYQQAHLEYNELTFCKTRMKWMNRINRKNPAINLGGPTFRWVHLCLNAIKRLPKVIPKIEIPILILQAEKEKIVDNKNLEKLTALFPNARCEVILNAKHEVLFEKDNVRRNVLKSVNHFLN | failed
9 | KLRQWLIDQIDSGKYPGLVWENEEKSIFRIPWKHAGKQDYNREEDAALFKAWALFKGKFREGIDKPDPPTWKTRLRCALNKSNDFEELVERSQLDISDPYKVYRIVPE | not failed
10 | KLYGSIFTGASKFRCKDCSAAYDTLVELTVHMNETGHYRDDNHETDNNNPKRWSKPRKRSLLEMEGKEDAQKVLKCMYCGHSFESLQDLSVHMIKTKHYQKV | not failed
11 | KMLMPIEFELVESAPLFHELLHLRDAVGLPSIGVDMADGHPLQPLYWVSIHLTAKQDKNTATIVATACVYGDNANHFAIEDFIVLPEYRHIGLGKIILERVMAFVDDRATLGTYVSINTHGEQEKLCTDYGFAHSH | failed
12 | KNVNRVLSAEALKPGMLLTGTVSSLEDHGYLVDIGVDGTRAFLPLLKAQEYIRQKNKGAKLKVGQYLNCIVEKVKGNGGVVSLSVGHSEVSTAIATEQQSWNLNNL | not failed
13 | KQKRMQAMIVTNHPEKVIEKIHKKLHRGATMIHDAEGTYNHERKAVLITVITRAEFNEFKQIMTQVDPSSFVSVSENVHILGRFVEIDN | failed
14 | KQVAEIGDRAVELVHDGSLLAPEDMGPYVAPIAFNALPFAGNLVEDGTEETDEEQKLRNESRKILGLPDLKVAGTCVRVPVFTGHTMVVHAEFNNAITPEQAREVLGNAAGVDVVDVPTPLAAAGVDNSLVGRIRQDQTVDDNKGLVFVVSGDNLRKGAALNAIQIAELLV | failed
15 | KRASSKWLVCIGTSPSSAKLIRWTARTAEAFRAPWTALYIENEENDYMTKAEKKCLRETMELAERLGAEIVTLAGHDIAETVAEYARLTGVTNIVVGKSRRRMGLRSLFEEDFEDRLITHLDNVDMHIIP | failed
16 | KRGRSVLVLDHAKKPGRKILISGGGRCNFTNYDVSASNYLCQNPHFVKSALSQYTNWDFISMVSKHGIEFEERDHGQLFCVDAFTAKDIVKMLLAECDMPNIQQRYQCDVHTIEKTEEGFRLHAGTEPVECESLVVATGGLSMPKLGATPFGYKVAEQ | failed
17 | KRKTKEQLAILKSFFLQCQWARREDYQKLEQITGLPRPEIIQWFGDTRYALKHGQLKWFRDNA | not failed
18 | KRRMELVGEYAGGITLIEDFAHHPTAIRLTLGAIAEHYPGRRIIACFEPRSNTTSRNIFQHELSECFGDAAIVVLGKVNRPERYAPEERLDAALLCRELKANGKRVFAAGSENYPEDIVRFIEAEQQPGDVVVLLSNGSFSGLKEMLAESFQKNS | failed
19 | KTFMIGVTSCISGDGKSFCSHNLARIYAISGKKTLLIRGDMRKAFNAPANLIPQGSMGLSQHLIGMATIDQIIHKGEIENLYQIIPGPVPPNASELVASQKMEEFIRIMKDKFEVVIMDSPPVGLVSDYMSVIKHIDANLYIVRYDYTPKETLEAIKDLKNKYPAQSHSIIFNGIT | failed

Row | Sequence | protein production
20 | KVILYARVSSSTQKDELVNQVKYLEEQVKEYDLVITDIGSGLNMKRKGFLKLLRMILNNEVSRVVVAYPDRLVRVGFEILEEVCKAHNCEIVVLNQEDKEEELVEDLMSALVSFSGKLYGMRSHEYEKVKKCAEELKNWKI | not failed
21 | KVVKFSYMWTINNFSFCREEMGEVIKSSTFSSGANDKLKWCLRVNPKGLDEESKDYLSLYLLLVSCPKSEVRAKFKFSILNAKGEETKAMESQRAYRFVQGKDWGFKKFIRRDFLLDEANGLLPDDKLTLFCEVSVVQDSVNISGQ | not failed
22 | KVWKPGDECFALYWEDNKFYRAEVEALHSSGMTAVVKFTDYGNYEEVLLSNIKPVQTEAWVRDPN | not failed
23 | LAALCPVAVPSGVQIYTIDGPLFFGAAATFERTLAGLHDQAEAVIFRLGRVPFADATAMHALDDVVRHFRQRHIEVRVCEANPRVAHKLREFGLLARIGQQDASISVLDALAELAPQPGTQVQAEAS | failed
24 | LAKILGMDSDGLNRLECFDISHTQGEATIASCVVYDEQNIQPSQYRRYNITTAKPGDDYAAMREVLTRRYGKMQEAEANGETVKWPDAVLIDGGKGQIGVAVSVWEELGLHIPLVGIAKGPERKAGMEELILPFTGEVFRLPPNSPALHLLQTVRDESHRFAI | failed
25 | LAVIVVLGCFALGLGGIIGFVHKGEDYQAYQKLQWHTLAPEKIAPLVAQGYTVFVDITSDWCSICQTNKAEVTHREQVVNALMADDIILMQGNWSEADNTIAGYMQYEGIPGTPYNKIYGPRNPNGIVLPSKLTIEAVINGLAQA | failed
26 | LAYEELRQREAQTAMQLAVNNALLTIKDRSRMLLAVCEQIDKLVPCTFLGIRVMDRDGNFRIFDNFMRETPSGFFPVSAHEKLDVPDFAEMARESFSLITSPGCFSGEAFQLLCDKYRLVGLVREKFNICSLISVRLWDLPGSCAGLIISDTSRAFDEHDQETVGLIVPQLSLALQNYLAFEEIDKLRRKLEGEKAYLFEEIKATHD | failed
27 | LDLMKEKNLIQKFFKELIKDDGGLSAYGEAQVMKYLEMGAIDTLIVTEDIGITRVTVKCNNCDYAQEVNVKTNEMFKFEEQLKTKACPTCGGAMYIDEEKDIIEHLSDLCHMHNTDIIVVSTDTEEGSQISRAFKGMAAILRYKL | not failed
28 | LDNRFNYINVPGLGGSGEHHWQTFWEQAYPEIHRVQQADWDHPICSVWVNKLQLITETCSDKPVVLIAHSLGCVTVLHAVAQRKLKGIAGAFLVAMPDAERADFPKECIGFIPVPRIVLPFPAVMIASENDPYITSPELKKWADVIQASFVSVGQRGHIGTAAQLTYWEEGQQLFRSFVEQL | failed
29 | LENCVFCKIIKRELPSTIYYEDERVIAIKDINPAAPVHVLIIPKEHIANVKEINESNAQILIDIHKAANKVAEDLGIAEKGYRLITNCGVAAGQTVFHLHYHLLGGVDMGPKIL | not failed
30 | LEYQKSQPPQPGDKFVSVVSQFITVASFSFSDVEDLLAEAKDLFTKAVKHFGEEAGKIQPDEFFGI | failed
31 | LFSSRDILEVLQDIHMETGETVAIATKNDIYLQYIQIIESVHALRFHVDENAIRPLTMSSNGWMLMSTMNDKAIDNTVRRANTITQKDGIRFEVDDMMARIRQVREQGYASAEHIPFVGGGTICVLLPMTIQGQPVTMGLGGALDRIKQNYDRYLELLLNGVQQLKKSDSFHQPI | not failed
32 | LGTVIQENSRSGGEQSANFFVNGPLAENLLLQVYGQYTAREEDDIDYGYEDKDMQSISSKLIYQINDRHSVQLEGGTSAQSRRGNVGLSVPTTGCRRGCEDSLNEYRRNYVTLSHTGEWELLGNSDTYLQREESENKSREMTIVNTTFKSSLVKGLGAHTLTTGVDATHAELEDFTSNKASSKTKASNTQWAVFIEDEWKIAEPFSLTLGGRLDHDENYGAHFSPRVYGVWRVAPAWTVKGGVATGFRSPQLREITPGWAQVSGGGNIYGNPDLDPETSLNKEISVLYQGDSGLDVTLTAFHNEFKDKITRVVCPDTICTDGPNQWGADPTYRINVDEAVTQGVEATLAKPLTETIYLSSSYTFTDSEQKTGEYKGMPLQQLPKHLFNVDVTWQTTDNLESWTKVTYRGKEMDPVTGPSRNSIVEPAYTFVDAGVTYQLTDNTKIKGAIYNLFDEDINYKEYGYVEDGRRYWLGLDVAF | failed
33 | LIKRMNAEELLHEKIEFNDLLLRSVENPIFWRDSRGFLIDCNAQFTRLLGISKDRLVGRSVYDICGDLHTPVLEGLLTKVLQGEGEQYDIDFKNHEGETLSFLVQASEYHDKSEKVAGVVTILFDMT | failed
34 | LKDVLNILLMDEISKLKDFLSNLDYIKPKVNIEEEIIEIRKEDIINALKLFKGKYEIEVDKIPKAVYVYLVKKNILFLYPQRGTLKPQSFLVWNAIKRVL | not failed
35 | LKKLPAEIYLIDEQAKTSVQDFEYASYYHSSATVNTGTFNECRSADLVLFFQEEMSNESFSNEDNLALIKEKVKKMMATGFQGIVLVATAESNIVASLIKHFSGLPANQIITPG | failed
36 | LKVMLRPILPEDEPKHLAFDNSLSDEDRYKRYFGVRSKMTHEEMAVLTQIDYAREMAFIATAKGPDGDDITLGAVRASIDPDNTEAEFAMAVRGDHQGIGLGKLLLEKLIKYYQANDTPVLTGFTMFENRNMASLAKNLGFKVTFDME | failed
37 | LKYMYKIDDDKKYILYCPTWRGNQRKEVTQINLKDLLKYLPENYEIIVKLHPNESHLRTRYNQIDNRIHCYFNELVDIQELYILSECMITDYSSTIFDYIHLNKPVFILQEDEQQYKQSVGFYFDLFEVGDFLKASLNERMLAKQICSTDYINYSKVVHRLMKQDSSKSSEKLMAEILG | failed
38 | LNLMMTPMLKVLATPERLAFGLKQMVSYLHANGVTAYMEPGALYTPDMWKLYEQILGAPETPMYATFIADGRGIVDRVGLDGALDAVEQQIAVAPEAPGRKLMFFPGQIKLFADGAIISQLMQMKDGYLDGHQGEWIIPPDELERRARLFWNAGYQIHTHVNGDLGLEKLLDILEKLNAEHPRPDHRSVIVHFANSTEDQVARIKRLGALVSANPYYTTGFADKYSAVGLGPERADAMVRAKSVLDQGVPLSYHSDLPMAPSAPLYLAWCGVNRLTPSGRVAGPEQRVSVDAALRAITIEAAYSWRHEDQ | failed
